Where a SMILES comes first, the peptide text is derived from it. Bridges are numbered along the chain shown (N, C = ends). [ ]: non-standard residue; d: D form. The star is where a group is joined. DOTA = O=C(O)CN1CCN(CC(=O)O)CCN(CC(=O)*)CCN(CC(=O)O)CC1; dPhe(4-NHCONH2) = NC(=O)Nc1ccc(C[C@@H](N)C(=O)O)cc1; Dihydroorotyl(S) = O=C1C[C@@H](C(=O)*)NC(=O)N1; Phe(4-Cl) = N[C@@H](Cc1ccc(Cl)cc1)C(=O)O; Phe(4-NH2) = Nc1ccc(C[C@H](N)C(=O)O)cc1
Experiments:
[1] = test system: patients with progressive, SSTR-positive NETs; test: Model-based organ dosimetry, OLINDA/EXM version 1.0 (part B, first cycle); type: in vivo, human; conditions: OLINDA/EXM 1.0, part B, median
Experimental: Patient-specific dosimetry calculations were performed after each treatment cycle in both parts A and B, using the absorbed dose calculation features of the NUKDOS software for image-based dosimetry calculations. The NUKDOS software was chosen as it allowed for an integral approach to organ dosimetry (including image quantification, time-activity curve-fitting and dosimetry calculation). For the bone marrow, both image-based and blood-based calculations were performed in part A [28, 29]. In part B, only image-based bone marrow dosimetry was performed. Organ Level INternal Dose Assessment/EXponential Modelling (OLINDA/EXM) version 1.0 software, the most widely used version at the time of the study, was used to perform model-based dosimetry calculations, which were only performed after the first [^177Lu]Lu-satoreotide tetraxetan cycle for patients in part B. To generate organ-specific absorbed doses, TIACs were used as input data. Full details on OLINDA/EXM software settings and organ-specific TIAC calculation methods are provided in the Supplementary Information.
Patient-specific dosimetry calculations were performed according to European Association of Nuclear Medicine Dosimetry Guidance after each treatment cycle in both parts A and B, using the absorbed dose calculation features of the NUKDOS software (i.e., integration of the time-activity curves, calculation of the absorbed dose). Model-based dosimetry calculations were only performed after the first [^177Lu]Lu-satoreotide tetraxetan cycle and for patients in part B. To generate organ-specific absorbed doses, TIACs were used as input data in the Organ Level INternal Dose Assessment/EXponential Modelling (OLINDA/EXM) software version 1.0, which was granted Food and Drug Administration 510(k) clearance in June 2004. The following settings were applied: ^177Lu isotope, no bladder voiding model, adult male or female phantom. As the OLINDA/EXM software makes no distinction between the right and left kidneys, their TIACs were summed. In case biokinetic data were available for one kidney only, the kidney TIAC value was doubled. For the bone marrow, the patient-specific mass of the analysed vertebrae was used for upscaling image-based TIAC values according to the OLINDA/EXM phantom gender-specific masses (mBone marrow=1,120 g for males and 1,300 g for females):
The kidney, spleen, liver, and bone marrow TIACs were subtracted from the patient’s whole-body TIAC to obtain the TIAC of the remainder of the body.

[2] = Blood pharmacokinetics (total activity in whole blood, gamma counter); type: in vivo, human; conditions: first treatment cycle
Experimental: To generate pharmacokinetic data, blood samples (2 mL) were taken at the stop of infusion (0 min) and 5, 30, and 60 min, 4 h, and 1, 2, 3, and 6 days after the end of each [^177Lu]Lu-satoreotide tetraxetan administration. Urine samples were collected over three intervals within 48 h (0–6 h, 6–24 h, and 24–48 h in part A; 0–4 h, 4–24 h, and 24–48 h in part B) following the first treatment cycle of [^177Lu]Lu-satoreotide tetraxetan. Total activity concentrations in whole blood and urine were determined locally, using a gamma counter calibrated for lutetium-177. In two selected study centres, additional blood samples (2 mL) were collected at 1 min, 4 h, and 1, 2, 3, and 6 days after each [^177Lu]Lu-satoreotide tetraxetan administration to evaluate potential radioactive metabolites in plasma.

C[C@@H](O)[C@@H]1NC(=O)[C@H](CCCCN)NC(=O)[C@@H](Cc2ccc(NC(N)=O)cc2)NC(=O)[C@H](Cc2ccc(NC(=O)[C@@H]3CC(=O)NC(=O)N3)cc2)NC(=O)[C@H](NC(=O)[C@H](Cc2ccc(Cl)cc2)NC(=O)CN2CCN(CC(=O)O)CCN(CC(=O)O)CCN(CC(=O)O)CC2)CSSC[C@@H](C(=O)N[C@H](Cc2ccc(O)cc2)C(N)=O)NC1=O [[^177Lu]Lu-satoreotide tetraxetan, metal not drawn] ({DOTA}-[Phe(4-Cl)][dC][Phe(4-NH2)](Dihydroorotyl(S))[dPhe(4-NHCONH2)]KTC[dY]-NH2; disulfide 2-7 (inferred); C-terminus assumed)
Calculated absorbed dose for 3 cycles of 4.5 GBq each, Red marrow ([1]; N = 18): 1.47 Gy | Calculated absorbed dose for 3 cycles of 4.5 GBq each, Spleen ([1]; N = 18): 8.78 Gy | Calculated absorbed dose for 3 cycles of 4.5 GBq each, Adrenals ([1]; N = 24): 1.03 Gy | Calculated absorbed dose for 3 cycles of 4.5 GBq each, Brain ([1]; N = 24): 0.96 Gy | Calculated absorbed dose for 3 cycles of 4.5 GBq each, Breasts ([1]; N = 24): 0.95 Gy | Calculated absorbed dose for 3 cycles of 4.5 GBq each, Gallbladder wall ([1]; N = 24): 1.02 Gy | Calculated absorbed dose for 3 cycles of 4.5 GBq each, Heart wall ([1]; N = 24): 0.99 Gy | Calculated absorbed dose for 3 cycles of 4.5 GBq each, Kidneys ([1]; N = 24): 14.18 Gy | Calculated absorbed dose for 3 cycles of 4.5 GBq each, Lungs ([1]; N = 24): 0.98 Gy | Calculated absorbed dose for 3 cycles of 4.5 GBq each, Muscle ([1]; N = 24): 0.97 Gy | Calculated absorbed dose for 3 cycles of 4.5 GBq each, Osteogenic cells ([1]; N = 24): 3.96 Gy | Calculated absorbed dose for 3 cycles of 4.5 GBq each, Ovaries ([1]; N = 24): 1.00 Gy | Calculated absorbed dose for 3 cycles of 4.5 GBq each, Pancreas ([1]; N = 24): 1.05 Gy | Calculated absorbed dose for 3 cycles of 4.5 GBq each, Skin ([1]; N = 24): 0.93 Gy | Calculated absorbed dose for 3 cycles of 4.5 GBq each, Small intestine ([1]; N = 24): 1.00 Gy | Calculated absorbed dose for 3 cycles of 4.5 GBq each, Stomach wall ([1]; N = 24): 1.01 Gy | Calculated absorbed dose for 3 cycles of 4.5 GBq each, Thymus ([1]; N = 24): 0.98 Gy | Calculated absorbed dose for 3 cycles of 4.5 GBq each, Thyroid ([1]; N = 24): 0.96 Gy | Calculated absorbed dose for 3 cycles of 4.5 GBq each, Total body ([1]; N = 24): 1.08 Gy | Calculated absorbed dose for 3 cycles of 4.5 GBq each, Liver ([1]; N = 24, may be an underestimation): 1.07 Gy | Calculated absorbed dose for 3 cycles of 4.5 GBq each, Uterus ([1]; female patients N = 11): 1.13 Gy | Calculated absorbed dose for 3 cycles of 4.5 GBq each, Testes ([1]; male patients N = 13): 0.72 Gy | Calculated absorbed dose for 3 cycles of 4.5 GBq each, LLI wall ([1]; lower large intestine, N = 24): 1.00 Gy | Calculated absorbed dose for 3 cycles of 4.5 GBq each, ULI wall ([1]; upper large intestine, N = 24): 1.01 Gy | Calculated absorbed dose for 3 cycles of 4.5 GBq each, UB wall ([1]; urinary bladder, N = 24): 0.99 Gy | Extrapolated area under the concentration-time curve (AUC0–infinity), mean [2]: 742.0 ± 303.0 MBq.h/L | Terminal blood half-life, mean ± SD ([2]; gamma counter): 110.0 ± 50.1 h | Terminal blood half-life, median ([2]; gamma counter): 127 h | Blood uptake at 1–5 minutes (peak) ([2]; median): 3.03 % administered activity/L

Source: article PMC11178655, “Dosimetry and pharmacokinetics of [^177Lu]Lu-satoreotide tetraxetan in patients with progressive neuroendocrine tumours” (European Journal of Nuclear Medicine and Molecular Imaging, 2024)
